Source: patent publication US20250257126A1 (CAMBRIDGE ENTERPRISE, published 2025)

T1: murine LGR5 transgene (mouse, UniProt Q9Z1P4 22-907)
T1 construct: whole, on cells; Overexpressed in HEK293T cells with N-terminal HA tag, V2 receptor tail and eGFP; also tested as lysate; also called mLGR5; mLGR5-eGFP
T1 sequence (looked up): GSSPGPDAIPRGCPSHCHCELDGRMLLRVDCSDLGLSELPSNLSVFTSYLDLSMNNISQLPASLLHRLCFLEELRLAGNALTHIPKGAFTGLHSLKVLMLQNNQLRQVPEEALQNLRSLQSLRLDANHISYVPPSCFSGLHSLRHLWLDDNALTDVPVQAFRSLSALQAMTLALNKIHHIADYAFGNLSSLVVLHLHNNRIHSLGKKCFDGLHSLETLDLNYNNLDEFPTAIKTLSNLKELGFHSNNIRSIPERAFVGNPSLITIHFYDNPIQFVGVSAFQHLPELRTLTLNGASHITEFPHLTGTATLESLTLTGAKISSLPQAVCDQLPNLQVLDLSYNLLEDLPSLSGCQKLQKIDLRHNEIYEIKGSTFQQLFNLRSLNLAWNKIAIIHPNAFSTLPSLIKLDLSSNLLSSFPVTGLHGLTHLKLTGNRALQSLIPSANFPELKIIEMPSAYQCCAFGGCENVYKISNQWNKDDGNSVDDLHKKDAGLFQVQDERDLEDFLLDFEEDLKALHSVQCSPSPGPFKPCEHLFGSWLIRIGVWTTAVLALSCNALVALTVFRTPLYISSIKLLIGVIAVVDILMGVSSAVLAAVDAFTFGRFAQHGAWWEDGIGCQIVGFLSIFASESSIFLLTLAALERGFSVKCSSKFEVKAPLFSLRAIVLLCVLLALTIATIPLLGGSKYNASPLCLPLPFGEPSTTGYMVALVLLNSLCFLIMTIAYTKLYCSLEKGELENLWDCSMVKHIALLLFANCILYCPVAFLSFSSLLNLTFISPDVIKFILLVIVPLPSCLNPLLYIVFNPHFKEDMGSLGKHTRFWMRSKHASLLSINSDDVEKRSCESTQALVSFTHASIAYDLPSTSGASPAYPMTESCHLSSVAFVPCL

T2: human LGR5-eGFP transgene (human, UniProt O75473 22-907)
T2 construct: Tested on live or fixed cells and as cell lysates on western blots; also called hLGR5-eGFP; LGR5-GFP
T2 sequence: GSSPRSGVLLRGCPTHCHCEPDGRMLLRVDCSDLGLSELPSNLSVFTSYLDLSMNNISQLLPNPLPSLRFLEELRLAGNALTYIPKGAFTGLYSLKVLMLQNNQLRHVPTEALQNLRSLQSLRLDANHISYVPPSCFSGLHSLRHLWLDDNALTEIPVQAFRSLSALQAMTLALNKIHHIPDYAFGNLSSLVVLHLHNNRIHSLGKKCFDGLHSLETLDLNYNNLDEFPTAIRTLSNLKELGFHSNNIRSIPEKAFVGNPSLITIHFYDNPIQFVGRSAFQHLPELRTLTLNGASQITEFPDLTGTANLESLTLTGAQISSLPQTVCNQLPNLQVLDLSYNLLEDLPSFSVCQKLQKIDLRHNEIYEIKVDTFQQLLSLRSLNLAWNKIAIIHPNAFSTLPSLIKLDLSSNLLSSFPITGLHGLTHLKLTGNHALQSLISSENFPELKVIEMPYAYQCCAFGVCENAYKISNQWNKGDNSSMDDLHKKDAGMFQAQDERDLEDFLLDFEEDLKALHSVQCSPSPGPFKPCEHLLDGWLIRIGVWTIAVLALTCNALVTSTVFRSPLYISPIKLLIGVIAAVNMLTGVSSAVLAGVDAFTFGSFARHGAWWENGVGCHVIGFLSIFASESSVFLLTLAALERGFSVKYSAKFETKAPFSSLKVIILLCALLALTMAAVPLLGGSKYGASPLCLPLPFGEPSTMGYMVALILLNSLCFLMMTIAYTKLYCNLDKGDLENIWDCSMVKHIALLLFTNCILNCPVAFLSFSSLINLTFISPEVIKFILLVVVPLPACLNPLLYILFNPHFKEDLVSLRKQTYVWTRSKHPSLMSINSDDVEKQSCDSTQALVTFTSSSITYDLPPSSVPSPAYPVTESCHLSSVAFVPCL

T3: endogenous human LGR5 of cancer cell lines (human, UniProt O75473 22-907)
T3 construct: Untagged LGR5 as expressed by human LoVo, NALM6, REH cells and CRC organoids; also called LGR5 on LoVo cells; LGR5 on NALM6 cells
T3 sequence: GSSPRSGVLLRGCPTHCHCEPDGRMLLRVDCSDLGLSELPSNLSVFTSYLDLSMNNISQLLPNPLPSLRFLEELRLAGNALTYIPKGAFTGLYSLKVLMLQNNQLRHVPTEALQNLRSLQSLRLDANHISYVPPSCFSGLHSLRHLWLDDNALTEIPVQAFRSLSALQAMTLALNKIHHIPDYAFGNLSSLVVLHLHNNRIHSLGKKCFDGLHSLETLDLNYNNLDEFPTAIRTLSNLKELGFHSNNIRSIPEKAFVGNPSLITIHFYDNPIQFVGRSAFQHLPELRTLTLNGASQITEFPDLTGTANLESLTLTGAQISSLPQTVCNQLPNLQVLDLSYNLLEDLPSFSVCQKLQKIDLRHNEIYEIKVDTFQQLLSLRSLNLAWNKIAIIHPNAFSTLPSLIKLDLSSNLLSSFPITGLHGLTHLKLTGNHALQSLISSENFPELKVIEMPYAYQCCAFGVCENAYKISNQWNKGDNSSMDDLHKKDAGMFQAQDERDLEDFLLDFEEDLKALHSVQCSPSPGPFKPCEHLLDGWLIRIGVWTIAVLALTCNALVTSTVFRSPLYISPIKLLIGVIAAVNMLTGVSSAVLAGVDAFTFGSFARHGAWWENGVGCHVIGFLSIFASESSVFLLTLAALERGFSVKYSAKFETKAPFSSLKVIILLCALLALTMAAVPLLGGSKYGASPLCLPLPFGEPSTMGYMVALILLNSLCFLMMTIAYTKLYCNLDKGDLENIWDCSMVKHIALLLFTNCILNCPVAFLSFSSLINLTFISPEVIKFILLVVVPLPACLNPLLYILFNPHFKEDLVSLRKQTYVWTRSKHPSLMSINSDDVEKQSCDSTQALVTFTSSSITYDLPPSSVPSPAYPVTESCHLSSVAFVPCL


Key:
[1] = biological target: T1, murine LGR5 transgene; test: western blot of lysates of HEK293T cells expressing the LGR transgenes
[2] = biological target: T2, human LGR5-eGFP transgene; test: western blot of lysates of HEK293T cells expressing mLGR5, hLGR5 or cynoLGR5 transgenes, probed with α-LGR5v4
Description: (§1) B. Indirect immune fluorescence analysis of human and murine LGR family expressing HEK293T cells using the a-LGR5v4 antibody (in red), the Alexa488-coupled Phalloidin F-actin probe alongside eGFP fluorescence imaging. In the bottom row of images, LGR5-expressing HEK293T cells were stained with a-LGR5v6. C. H&E staining of tissue sections from a-LGR5v6-ADC (top row) and a-LGR5v4-ADC (bottom row) treated mice.
(§2) Western blots of HEK293t, LoVo and NALM6 lysates was carried out with 40 μg of protein.

[3] = biological target: T1, murine LGR5 transgene; test: as above
Description: as §1, §2

[4] = biological target: T3, endogenous human LGR5 of cancer cell …; test: flow cytometry of LoVo and NALM6 cells after 60 minutes with fluorescent antibodies, α-HER2 against α-LGR5
[5] = biological target: T4, human LGR4 transgene (human, UniProt Q9BXB1 25-951); test: immunofluorescence of HEK293T cells expressing LGR-eGFP transgenes with α-LGR5v4
T4 construct: whole, on cells; Overexpressed in HEK293T cells with N-terminal HA tag, V2 receptor tail and eGFP; also tested as lysate; also called hLGR4; LGR4-eGFP
From the text: as §1

[6] = biological target: T5, murine LGR4 transgene (mouse, UniProt A2ARI4 25-951); test: as above
T5 construct: whole, on cells; Overexpressed in HEK293T cells with N-terminal HA tag, V2 receptor tail and eGFP; also tested as lysate; also called mLGR4
From the text: as §1

binding result [1]	binding result [2]	binding result [3]	binding result [4]	binding result [5]	binding result [6]	Binder
no binding						hybridoma clone 12 (antibody, V domains shown, Murine antibody; also called antibody 12) VH: EVQLQQSGPELVKPGASVKISCKASGYTFTDYYMNWVKQSHGKSLEWIGDINPNNGGTIYNQKFKGKATLTVDKSSSTAYMELRSLTSEDSAVYYCASGYLFDYWGPGTTLTVSS VL: not shown
	binds	no binding	binds	no binding	no binding	α-LGR5 variant 4 (antibody, human IgG1, kappa, V domains shown, Humanized antibody; also called α-LGR5v4; clone 2.4) VH: QVQLVQSGAEVKKPGASVKVSCKASGYTFTNYWMQWVRQAPGQGLEWIGEIDPSDSYTNYNQKFQGRVTLTVDTSTSTAYMELSSLRSEDTAVYYCARSLSGYVDYWGQGTTVTVSS VL: EIVMTQSPATLSLSPGERATLSCRASQDISNRLNWYQQKPGQAVRLLISYRSRRHTGIPARFSGSGSGTDYTLTISSLEPEDFAVYYCQQGNSLPPTFGGGTKLEIKR
